What was measured:
[1] = target: T1, She3p (S343E S361E) (Saccharomyces cerevisiae, UniProt P38272 1-425, S343E;S361E); experiment: EMSA; +++; EMSA: 20 mM HEPES pH 7.8, 200 mM NaCl, 2 mM MgCl2, 2 mM DTT, 4% glycerol, 30 or 100 ug/ml yeast tRNA, 5 nM RNA, 20 C; filter binding: 20 mM HEPES pH 7.4-7.5 (7.9 with She3p), 150 mM NaCl, 2 mM MgCl2, 2 mM DTT, 30 ug/ml yeast tRNA, 0.5 nM RNA; pull-down: HNMD buffer, 4 C; details: protein: recombinant; tags: C-terminal His6; label: 32P; stem-loop
T1 sequence: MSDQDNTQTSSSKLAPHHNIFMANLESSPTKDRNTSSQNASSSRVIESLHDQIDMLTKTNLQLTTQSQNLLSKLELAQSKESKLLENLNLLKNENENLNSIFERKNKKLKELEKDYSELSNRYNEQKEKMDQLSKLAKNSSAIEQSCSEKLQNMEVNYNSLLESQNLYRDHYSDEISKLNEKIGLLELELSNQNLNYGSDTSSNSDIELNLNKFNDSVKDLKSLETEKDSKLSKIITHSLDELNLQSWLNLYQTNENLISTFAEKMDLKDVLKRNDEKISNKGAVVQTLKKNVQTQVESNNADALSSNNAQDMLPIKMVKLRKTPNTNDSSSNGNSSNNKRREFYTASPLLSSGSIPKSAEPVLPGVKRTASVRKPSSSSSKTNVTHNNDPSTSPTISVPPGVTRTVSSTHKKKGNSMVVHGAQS

[2] = target: She2p (ΔhE);She3p (Saccharomyces cerevisiae;Saccharomyces …, UniProt P36068;P38272 1-246;1-425, del174-183|); experiment: EMSA; no mobility shift; EMSA: 20 mM HEPES pH 7.8, 200 mM NaCl, 2 mM MgCl2, 2 mM DTT, 4% glycerol, 30 or 100 ug/ml yeast tRNA, 5 nM RNA, 20 C; filter binding: 20 mM HEPES pH 7.4-7.5 (7.9 with She3p), 150 mM NaCl, 2 mM MgCl2, 2 mM DTT, 30 ug/ml yeast tRNA, 0.5 nM RNA; pull-down: HNMD buffer, 4 C; details: protein: recombinant;recombinant; tags: GST tag (PreScission-cleaved);C-terminal His6; chain copies: 4;2; label: 32P; stem-loop
Sequence of She2p (ΔhE);She3p (P36068 other isoform, or with tags, fused parts or gaps del174-183| | mutant): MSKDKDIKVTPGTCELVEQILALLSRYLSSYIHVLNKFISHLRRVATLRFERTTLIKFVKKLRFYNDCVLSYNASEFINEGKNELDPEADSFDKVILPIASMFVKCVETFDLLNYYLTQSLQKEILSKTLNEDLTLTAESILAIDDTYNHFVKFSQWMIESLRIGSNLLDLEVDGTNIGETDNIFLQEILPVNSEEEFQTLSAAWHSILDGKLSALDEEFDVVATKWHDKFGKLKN

B1: ASH1 E3-118 (structured_RNA)
RNA: GAGACAGUAGAGAAUUGAUACAUGGAUAACUGAAUCUCUUUCAACUAAUAAGAGACAUUAUCACGAAACAAUUGUACAUUUCUCUCCUUGUCUGUGCUAAAUAAACUACAAAUAAAAA
B1: binds [1]; no binding [2].

From publication PMC3079584, “A Cytoplasmic Complex Mediates Specific mRNA Recognition and Localization in Yeast”
